Test results as given in the supplement of paper PMC7877785.
± gives the uncertainty stated by the source.

Assay: self-splicing fitness, log relative to wild type (ln ratio); higher = more splicing; Tetrahymena group I intron in knt gene, E. coli kanamycin selection, DiMSum; sequences stand for … in CUCUCU…GGAGGGAAAAGUUAUCAGGCAUGCACCUGGUAGCUAGUCUUUAAACCAAUAGAUUGCAUCGGUUUAAAAGGCAAGACCGUCAAAUUGCGGGAAAGGGGUCAACAGCCGUUCAGUACCAAGUCUCAGGGGAAACUUUGAGAUGGCCUUGCAAAGGGUAUGGUAAUAAGCUGACGGACAUGGUCCUAACCACGCAGCCAAGUCCUAAGUCAACAGAUCUUCUGUUGAUAUGGAUGCAGUUCACAGACUAAAUGUCGGUCGGGGAAGAUGUAUUCUUCUCAUAAGAUAUAGUCGGACCUCUCCUUAAUGGGAGCUAGCGGAUGAAGUGAUGCAACACUGGAGCCGCUGGGAACUAAUUUGUAUGCGAAAGUAUAUUGAUUAGUUUUGGAGUACUCGUGGUCG
In short: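 Pooled colonies went to amplicon sequencing on an Illumina HiSeq 2500 after six replicate transformations. The plates were LB agar with 100 μg/mL carbenicillin, 50 μM IPTG and 0.2% rhamnose, with or without 25 μg/mL kanamycin, incubated overnight at 37°C or 30°C. The E. coli BL21(DE3) library had all eight P1ex-region intron nucleotides randomised, the intron placed in the knt kanamycin-resistance gene on pET-22b(+). DiMSum fitness is the error-weighted combination of replicate fold changes, kanamycin against none, normalised to wild type.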

Sequence	self-splicing fitness (ln) (30 °C)	self-splicing fitness (ln) (37 °C)
AAGUAGCAAUAUUACGAGUA	-1.79 ± 0.15	-1.86 ± 0.18
AAGUAGCAAUAUUACGAUUG	-3.24 ± 0.28	-0.999 ± 0.22
AAGUAGCAAUAUUACGCAAC	-3.33 ± 0.25	-2.87 ± 0.35
AAGUAGCAAUAUUACGCAAG	-1.81 ± 0.17	0.657 ± 0.18
AAGUAGCAAUAUUACGCCCC	-1.1 ± 0.19	-1.22 ± 0.22
AAGUAGCAAUAUUACGCCGG	-3.7 ± 0.3	-1.59 ± 0.18
AAGUAGCAAUAUUACGCUGU	-3.66 ± 0.25	-1.87 ± 0.14
AAGUAGCAAUAUUACGGAAC	-1.4 ± 0.49	-1.46 ± 0.25
AAGUAGCAAUAUUACGGAAG	-2.96 ± 0.19	-2.44 ± 0.37
AAGUAGCAAUAUUACGGAUU	-0.677 ± 0.092	-0.751 ± 0.11
AAGUAGCAAUAUUACGGCCA	-0.679 ± 0.095	0.256 ± 0.11
AAGUAGCAAUAUUACGGGAC	-2.43 ± 0.11	-2.83 ± 0.21
AAGUAGCAAUAUUACGGGCG	-1.71 ± 0.11	-1.53 ± 0.14
AAGUAGCAAUAUUACGGGGA	-2.42 ± 0.18	-1.74 ± 0.17
AAGUAGCAAUAUUACGGGUU	-1.46 ± 0.13	-1.55 ± 0.17
AAGUAGCAAUAUUACGUCAC	-3.26 ± 0.15	-3.73 ± 0.22
AAGUAGCAAUAUUACGUUAC	-3.59 ± 0.3	-2.71 ± 0.29
AAGUAGCAAUAUUACGUUCC	-1.67 ± 0.16	-0.678 ± 0.16
AAGUAGCAAUAUUACGUUCG	-1.35 ± 0.13	-0.681 ± 0.17
AAUAAGCAAUAUUACGAAAC	-3.3 ± 0.39	-2.17 ± 0.49
AAUAAGCAAUAUUACGACAC	-1.12 ± 0.16	-0.462 ± 0.16
AAUAAGCAAUAUUACGAGCU	-0.949 ± 0.1	-0.237 ± 0.1
AAUAAGCAAUAUUACGAGUC	-3.1 ± 0.28	-1.48 ± 0.18
AAUAAGCAAUAUUACGAUCC	-0.993 ± 0.21	-0.374 ± 0.24
AAUAAGCAAUAUUACGCGCU	-0.554 ± 0.17	-0.562 ± 0.18
AAUAAGCAAUAUUACGCGUU	-3.75 ± 0.15	-1.8 ± 0.14

Sequence	self-splicing fitness (ln) (30 °C)	self-splicing fitness (ln) (37 °C)
AAUAAGCAAUAUUACGCUCA	-0.304 ± 0.091	-0.155 ± 0.12
AAUAAGCAAUAUUACGGCCA	-0.21 ± 0.12	-0.615 ± 0.12
AAUAAGCAAUAUUACGGCGG	-0.94 ± 0.093	-0.865 ± 0.1
AAUAAGCAAUAUUACGGUAU	-2.05 ± 0.099	-1.04 ± 0.13
AAUAAGCAAUAUUACGGUGU	-2.59 ± 0.12	-0.711 ± 0.12
AAUAAGCAAUAUUACGUAGU	-3.14 ± 0.15	-2.15 ± 0.19
AAUAAGCAAUAUUACGUGAG	-0.815 ± 0.065	-0.198 ± 0.093
AAUAAGCAAUAUUACGUGCA	-0.334 ± 0.062	0.0616 ± 0.079
AAUAAGCAAUAUUACGUGUG	-1.05 ± 0.077	-1.57 ± 0.1
AAUCAGCAAUAUUACGAAGA	-0.26 ± 0.087	0.0829 ± 0.099
AAUCAGCAAUAUUACGAAGG	-1.16 ± 0.071	-0.793 ± 0.099
AAUCAGCAAUAUUACGAUUC	-2.99 ± 0.2	-3.73 ± 0.39
AAUCAGCAAUAUUACGCAAU	-0.895 ± 0.067	-0.0563 ± 0.093
AAUCAGCAAUAUUACGCACU	-0.299 ± 0.077	0.326 ± 0.093
AAUCAGCAAUAUUACGCCAA	-1.61 ± 0.14	-0.855 ± 0.15
AAUCAGCAAUAUUACGCGAA	-0.0302 ± 0.071	0.278 ± 0.098
AAUCAGCAAUAUUACGCGUA	-0.281 ± 0.068	0.0946 ± 0.082
AAUCAGCAAUAUUACGCUAC	-2.83 ± 0.23	-2.22 ± 0.27
AAUCAGCAAUAUUACGGACA	-0.225 ± 0.077	-0.145 ± 0.091
AAUCAGCAAUAUUACGGAGG	-1.01 ± 0.084	-1.18 ± 0.1
AAUCAGCAAUAUUACGGCAU	-0.109 ± 0.045	0.27 ± 0.059
AAUCAGCAAUAUUACGGUUC	-2.32 ± 0.11	-1.91 ± 0.17
AAUCAGCAAUAUUACGUCCG	-1.59 ± 0.085	-0.00732 ± 0.11
AAUCAGCAAUAUUACGUGGG	-2.12 ± 0.11	-1.09 ± 0.12
AAUCAGCAAUAUUACGUGUC	-0.924 ± 0.053	-0.319 ± 0.069
AAUCAGCAAUAUUACGUGUU	-0.901 ± 0.056	0.209 ± 0.064

Sequence	self-splicing fitness (ln) (30 °C)	self-splicing fitness (ln) (37 °C)
AAUGAGCAAUAUUACGAAAA	-3.58 ± 0.4	-2.1 ± 0.27
AAUGAGCAAUAUUACGACUC	-1.05 ± 0.13	-0.904 ± 0.15
AAUGAGCAAUAUUACGAGGG	-4.5 ± 0.29	-1.98 ± 0.17
AAUGAGCAAUAUUACGAGUC	-4.32 ± 0.46	-3.08 ± 0.47
AAUGAGCAAUAUUACGAUUU	-1.24 ± 0.095	-0.73 ± 0.1
AAUGAGCAAUAUUACGCCAG	-3.99 ± 0.3	-2.87 ± 0.47
AAUGAGCAAUAUUACGCCGC		-1.7 ± 0.42
AAUGAGCAAUAUUACGCGCU		-1.72 ± 0.37
AAUGAGCAAUAUUACGCUAU	-2.84 ± 0.28	-1 ± 0.16
AAUGAGCAAUAUUACGGAGC	-3.43 ± 0.25	-1.03 ± 0.44
AAUGAGCAAUAUUACGGAUG	-3.35 ± 0.17	-2.23 ± 0.22
AAUGAGCAAUAUUACGGUAG	-4.54 ± 0.32	-3.47 ± 0.24
AAUGAGCAAUAUUACGGUGG	-3.48 ± 0.21	-1.89 ± 0.24
AAUGAGCAAUAUUACGUGGU	-2.41 ± 0.11	-3.49 ± 0.23
AAUGAGCAAUAUUACGUGUA	-3.35 ± 0.23	-2.56 ± 0.21
AAUGAGCAAUAUUACGUUCG	-1.74 ± 0.11	-0.765 ± 0.12
AAUUAGCAAUAUUACGAAAG	-3.12 ± 0.19	-1.51 ± 0.18
AAUUAGCAAUAUUACGAACA	-0.672 ± 0.16	-0.784 ± 0.18
AAUUAGCAAUAUUACGACAA	-1.79 ± 0.21	0.209 ± 0.24
AAUUAGCAAUAUUACGACAC	-0.631 ± 0.11	-0.0896 ± 0.14
AAUUAGCAAUAUUACGACCC		0.136 ± 0.36
AAUUAGCAAUAUUACGACGU	0.421 ± 0.095	-0.3 ± 0.075
AAUUAGCAAUAUUACGAGGG	-3.23 ± 0.23	-2.93 ± 0.3
AAUUAGCAAUAUUACGAGGU	-3.26 ± 0.2	-3.02 ± 0.24
AAUUAGCAAUAUUACGCAAA	-1.96 ± 0.18	0.00784 ± 0.17
